From doi:10.1101/2021.03.22.436447 (bioRxiv, 2021) come the findings set out here.

The target of this assay is T1, spectacled caiman hemoglobin beta-type chain (Caiman crocodilus (endogenous in red …, UniProt P02131 1-146)).
T1 sequence (looked up): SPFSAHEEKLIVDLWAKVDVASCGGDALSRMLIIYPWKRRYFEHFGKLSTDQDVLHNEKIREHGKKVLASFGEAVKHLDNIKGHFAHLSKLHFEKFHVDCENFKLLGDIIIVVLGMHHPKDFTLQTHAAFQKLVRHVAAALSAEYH
The assay can be described thus: SEC. For orientation: In gel filtration, larger molecules generally elute earlier.

B1: spectacled caiman hemoglobin alpha-type chain (natural protein)
chain: not shown
B1: the binding result is listed as “binds”.
